test: soluble on expression in E. coli; label from the status in PepcDB or PDB records

Soluble on expression in E. coli, not soluble:
MGSDKIHHHHHHMNLKQLRYFVTICEEGQITAAAKRLHIKQPLLSYEIKQLELELETSLFIRGPRGISLTDAGKVLKPYAEQITELSDVAKTKVKYLDKGISGSLSIGSISSSINKLPNQRLLKLKKYYPNIAINVIEGNTYKLLGYLEKGLIDLAILRTPFSSKGVIGYYFDKEPMVAVSAKNNQKDTVGLPDKYLKIDDLSNKPLIIYRRFKELIENTFRNLGFNPLIVVRCDDARTALDGAKVGFGTAIVPKSAILQVENEGEKDIEFREIKEKALETQLAIMWRRDDSFNPLTENFLKMFIGK
MGSDKIHHHHHHMNLKRRRLLDLKSEIFEKIIKIEGNKIDIKPPKKIPQPILSPSREGFDSRNTYNPAVIKEKDRIVMLYRAESKEDKLTGRIGLAISYDGINFFRHPEPIIEPEYKWESVGVEDPRIVKVGKTYYMTYTGYDGKTARLCLATSKNMLTWKKHGPIFEGFEYKKNNIKGWTKSGAILPKKLEKGNFKGNYLMYFGDSNIWMAVSKDLVNWEYMKEPVLSPREGYFDNVLVEPGPPLFETSYGIALIYNSAGRYGDKLKYKVGVVIFDKEYPDKVVARTETPLMVPEYEWELYGHVNNVVFVEGMVEHENKILLYYGGADRHIGLAYWTTDL
MGSDKIHHHHHHMNLLPLFLAVAEEDNFRAAADRLGVTRSAVSQGIRRLEDAFGTTLVTRTTRSVRLTEAGERLREALSQPLSDIGTALDRVAGEDEPRGLLRIAVTSIAEQFLSGPLIASFAQAHPKVAIDVTVTDEEFDIVAAGFDAGVRLGEVIEQDMIAVPLTGDQRELAVAAPTYLAVRGTPAHPRELVHHRCIGWRRAPNVAPYRWEFEENGVPFDVAVEPQITTNDLRFMLRSALCGAGITFATEETFRPFVETGELVPLLQDFLPPFPGFFLYFPQRRNMTPKMRALIEHVRRWR
MGSDKIHHHHHHMNLLTDIFCQKPKRETAMTTETHYDTQAANSCYYQVQGSEVEIFNFAKTHDLPVLIKGPTGCGKTRFVEFMAESLGRELVTVSCHDDLTAADLLGRHLVSSEGTFWQDGPLTRAVRHGGICYLDEIIEARKDTTVVLHSLSDHRRELHLERTGEVIKAHKDFMLVVSYNPGYQNMMKGLKPSTRQRFVAMSFDYPSPEQEAEILVHEAGITTELAHTLVKLGADIRRLSDIDLKAAVSTRLLIYAAKMMSSGCHAQMACLHCIIEPLTDEKQTIEALTQLVNAHF
MGSDKIHHHHHHMNNIFLILGCAKQRWQDLEIICEYVKKTYSLTTMLMVNKAHKEFYSVCDQVIEVDLSDQNFIALASRLLSEQKVSGGLLFADQALLHGTKLFEQLGIVCDNSELGINSYSKLEFRRQEKRYFSHAAKTHYFVPEFSKVNSLQDVHAFAVKYPDGFILKPISEGGSRGVLKLHAQSDFGAAYKQVECYQADGLMCEQLIPTFREFSFDGVGDISFITEKLVATGAHPVEVGQIVPAELTCDSAEKISAHGRLMNLWVGQQLGAFHNEIAYLESQGSTAAIESNRRSGGMGIWNLAEKVFGENLFHRWVDVAMGQTVEHIPLNATGKAMSCMLGSRENLIDDLTMITAQIQEVLAFELGPDIELFSLRWLHTQPHMLPSIPQSNFDFLAEACIYCAHFDLSNQALYERVQRAWDKCLYIGMKEEKCA
MGSDKIHHHHHHMNNINEKSTYHHGDLRETLLVVATEMLQENGIKEVSLRKLASRVGVSRTAPYHHFKDKNALLCGMAEKGFEQLHQINKCGYEDGELSIREHFYRFIHDYIQFAHNNPDLYELMFGRTIWKDKSSTQELRDSAYPCFQFQVAMTQEWQKKGLFNVDDNALRVSQVLWGTVHGIAKLFIDGIYTDNSKIDEICDYAVSMFLSNSKK
MGSDKIHHHHHHMNNKPVVGISGCLTGATVRFDGGHKRMDFVMNSLAPWVAYKPICPEVAIGLPVPRPALRLIQTTCGDIRMRYSHAPHDDVTERMNAFADRFLPTIGELAGFIVCAKSPSCGMERVRLYDEKGNRGRKAGTGLFTAAMMDKYPWLPIEEDGRLHDPVLRENFIARIFALHELNALRAQGLSRHSLLAFHSRYKLQLLAHHQAGYREIGPFVARLHEWDDLDAFFVRYREKLMAILRHPASRKNHTNVLMHIQGYFHRALNSRQRAELREVILGYRAGRLPILAPLTLLKHYLAEHPDDYLRSQNYFEPYPDTLGLRLAIT
MGSDKIHHHHHHMNPLAVELNDLLAQHNPHVLEMLSDLGKNLFFPKGILTQSAEAKEKAHKFNATIGIATENGGPMYLQCIQDKLSAFDPKDIYPYAPPAGKPELRSLWREKMLRENPSQQGKHFSNPIVTNALTHGLSIAGDMFLDKGDHLILPDMLWGNYNLTFGTCCGAVIRKYPTFTATGGYDVDAFKAELKNSAEEKGKAVVLLNFPNNPSGYTPTVAEGDALVAAIKEVAEGGCNIVAITDDAYFGLFYEDSLKESLFGKLANLHPRILAVKLDGATKEEFVWGFRTGFITFADGNSYENTPVMTALEKKAMGIIRARISNCPHPSQTFAIEALRSPNFIKQKQEKFQVLKGRALKTKEVLNSGKYDKAWDYYPFNSGYFMCLKLKTVDAEKLRVHMLDKYGVGAISIGKTDLRIAFSCIDEKDIPELFATIHQAVQDLS
MGSDKIHHHHHHMNQEKIQELVSRSQQDDKRAFALLVSEFQPLVFRLAFRLLCDEEEARDITQETFVKVWLSLKTYNQENRLSTWLYKITCNTCYDRLRSLRHSPLDNESAFSDSVNIPSDDHIEISLSNKQLKELILRYTNELPPQQKLVFTLRDVEELEVAEVQIITGLSPEKIKSTLYLARKNIRNKMNQIDPDL
MGSDKIHHHHHHMNQSETDMIERIFTATDALMATVGLPNLSMHKIAREAKISPGTIYIYFKNKEELLTQFARYIFQNFQDVLKEGYDERQPFFQQYRKMWWNIWHFLEAEPTIMANMGQYESLPGFSDICQKWESDSIWYHFCVKAKAAGELADVPPPILFAISLESAFNIAFKCRHFCAQVSMEMLEAVIERTWLAIKN
MGSDKIHHHHHHMNRIAEEVGLQKASVYHHYAEKDTLLLALVDYVVEELRYRIVQPDDEDPRQQLRRFIDEVVFGHHAGPDATALSPPTDGTIRAFIQIRAQAVHDDDYREQITTIDRIQQEHIAEIIQRGVDAGEFRDVDPTQVASFISTLLTGVFTRRVTMTTDLTPVREATHAYLEAVLVA
MGSDKIHHHHHHMNSGEYKYIWQASDWPNWRFDLAALAEPMAEVSRAQGLLMGRLADVGMALRDQASLAALTEDVVKTSEIEGEQLNVESVRSSIARRLGVDIGALAPVDRHVEGVVEMVLDATANCQALVSRERLFGWHAALFPTGYSGLSKINVGGWRDDATGPMQVVSGPIGRQRVHFEAPPADRLETETSRFLDWLNGTLNEPPLLKAGLGHLWFVTLHPFDDGNGRIARAIGDLLLARADGSPQRFYSLSAQIQRERKAYYDILERTQKRSMDVTEWLAWFLDTLHRAVDQAQHTLDAVLTKARFWQRWATTPLNERQVKLLNKLLDGFEGKLTSSKWAAIAKCSPDTALRDINDLLTRGVLRKSDAGGRSTSYELNDLPE
MGSDKIHHHHHHMNTDSPLKAIQPPADEQAWAVRARRQFEAEQLLYAYVEYIDDDRLEELPELFTEDGSYQIISRENVERGLPAPTMGCSNRNMLIDRIVSLRHANIYSQHAYRHVLSNVRVKAMEGDEALVQSNYVVMATRGDGIARVYSTGKYVDRLVFEEDGPKFKQKRVIFDTQLIDTLLVRPL
MGSDKIHHHHHHMNYCSIVSSNVVKGKAKELGFHKVGIAAVNESTNAEAERLQAWIKLGYHADMEWMNNPKRSDISLIMPEARSLVCVALNYYTPHQRPDSAEYAKISRYGWGRDYHKVMNRKLKALTTWLQSLDPSIQARYYADTGPVQDKVWAQRAGIGWIAKNGNVITRAYGSWVFLGEVVTNLELEKDSPHTEHCGSCTRCLDACPTGAITQPFVVDANRCIAYHTIENRAAELPEAIASQMQGWVAGCDICQDVCPWNQRFAQTTDVVDFQPYPDNIAPKLIELAQISDEEWDKQFPASALRRIKPEMLRRNARANLDASKRNNDPESNHF
MGSDKIHHHHHHMNYKTSIADNVTEKEISEKLGISLSTVKRSVSRLKNNKNLIDKVISNNVIAEGSYKTYNKYHVAKCNEDFFYIYNSFFNDDMNIAKASERIKIKNFLLKLKAICKKETNKYISESPYMDGLNKAELSKKLGIIDTKTLNKYLEMAVNAGQIKYITNGLLILNKSIIPDFKKDDTDTRIYHIIYDWCIDNDVVPPDRNDEIKIMEDGSVRRKNSLLLEIAGKLGYMKDEEIRSLLTNRITSEEITLEYIAKVLNIKNKKKKEEIEWPPIIMLD
MGSDKIHHHHHHMNYLVYQSYGSKDILNECCYSILSLLKHGINKNETRIVIYTDQPEYFSFLPAATLEFVQMSADIIADYKGVHAFVHRLKIKILQDAVTRFQGTILYVDSDIYFLKSIEPLFASISKTNLLMCNNEGRIHTGGNRIFEKFSAFIKKNTDYLKQHHIPIPYDITMWNAGVIGFLSTEKELLEKVLYTNDTIYNKFQSHVVEQLSFSYQLQKQGTLNAATDYLYHYWNFKEFRIVLAEFFKYHLNRGSVEQMIQDIDSIRPDVLIKPKLEYETLPFLKKNIRKLGGKKNRWKFPAYTIGQAATI
MGSDKIHHHHHHMPADSVRPTWSLTDIPYATIEKEKIIGNTDWFYLLAGASFVETLSDLYTRNLVEYYQENVGATTWLRQEWEMEEVQHGHALRRYVLFVWPDFDWERAYQGFVTAYAPCCRTELLGPTHALEMASRCVVETGTASFYTMIQAASPEPVLRQIAAHIRADEVHHYKYFYRIFRQYQAAEKNSRWRIGRELWKRVAEAEQEDSYLAIKNAFEVKNPGEKFFIEDFAAFRKRIGGWVDRYYPFDMAIKMLLKPVALPPMLQRAALPLLSHGARRAILG
MGSDKIHHHHHHMPAILDLFNQKTVLDYVQNRQYPQLLGDTLFPSVKIDQLDFEYLRGGSKTPIIASVSAFDTEAEIGSREASVQAAELGYIKRKMQLKEKDLIALRNPRTPAEQNYLTSLVYNDLDVLVQGVYARVEKMRMEALATGTISIDENNMNFGVTYNVPAEHQVTAATSWDADGADPIKDLQDWFALLDYAPTRILTSSKVQTALIRSKAFADYFKTAGLLPSVGSLNAVLQSFGLPTIVTYDAKYRKQGANGIYTVERYFPEDTLVAFGDDQLGQTVYGPTPEESRLIATPGVQQGTVGNVFTTVYETTQDPIATWEKAAATALPSFPEAENVLQAKVLIPKP
MGSDKIHHHHHHMPDTTHATIRSARLGDVEHILAEYRQAVAELPREESANLLWRPYDEFKAAVENGLFFVIENAVGSFMAGAGVFDLPGSVEKELGMCYVKKEWRGYGLQNLLLQIRICAATLGHVPDKSGEDAATKSFAALITGVKPANEHSAANTERLGFEPLPTPPSALFNACASCRTPPARDSGRKCCCDFFYLSDARRAEAIEKSLQMENWSRTRNGHGLIVALKIRHLLDIDFRNALHDIVQELRAQEPRVPTPGKQVK
MGSDKIHHHHHHMPEFMKPIHSVILIQNLQARIETCAEMAVNVFQNLNTASLLCPSNTGGWSIVQCLDHLNSYGDYYLPHIQKAFDTHMPGKPAEDVKSSWLGNYFTQLMLPDSGKKYKAFKKHIPKPRLDSAAVVATFIEQQEILLTYLEKAKKYDMNTIRISISIAPFIKLKLGDVFQFLVAHTERHVQQAQRNVPIYE
